Each binder was assayed against T1, HLA-A*02:01 (human) (assay: UV-ligand exchange, anti-b2m ELISA; peptide exchange yield grade (+ >=10%, ++ >=20%, +++ >=50, ++++ >=75%)).
T1 construct: Captured on streptavidin plates and detected with anti-b2m; also called peptide-receptive MHC molecules; MHC class I
Description: Candidate peptides for T cell based therapies according to the present invention were further tested for their MHC binding capacity (affinity). The individual peptide-MHC complexes were produced by UV-ligand exchange, where a UV-sensitive peptide is cleaved upon UV-irradiation, and exchanged with the peptide of interest as analyzed. Only peptide candidates that can effectively bind and stabilize the peptide-receptive MHC molecules prevent dissociation of the MHC complexes. To determine the yield of the exchange reaction, an ELISA was performed based on the detection of the light chain (β2m) of stabilized MHC complexes. The assay was performed as generally described in Rodenko et al. (Rodenko et al., 2006).
96 well MAXISorp plates (NUNC) were coated over night with 2 ug/ml streptavidin in PBS at room temperature, washed 4× and blocked for 1 h at 37° C. in 2% BSA containing blocking buffer. Refolded HLA-A*02:01/MLA-001 monomers served as standards, covering the range of 15-500 ng/ml. Peptide-MHC monomers of the UV-exchange reaction were diluted 100 fold in blocking buffer. Samples were incubated for 1 h at 37° C., washed four times, incubated with 2 ug/ml HRP conjugated anti-β2m for 1 h at 37° C., washed again and detected with TMB solution that is stopped with […]. Absorption was measured at 450 nm. Candidate peptides that show a high exchange yield (preferably higher than 50%, most preferred higher than 75%) are generally preferred for a generation and production of antibodies or fragments thereof, and/or T cell receptors or fragments thereof, as they show sufficient avidity to the MHC molecules and prevent dissociation of the MHC complexes.
In the case of SLSPVILGV, the peptide exchange yield is reported as no less than 75%. Work on MISRTPEV yielded a peptide exchange yield of 20 to 50%. In the case of ALYEYQPLQI, the peptide exchange yield is reported as 20 to 50%. GAIDLLHNV gave a peptide exchange yield of 20 to 50%. PAVLQSSGLYSL was tested, and the peptide exchange yield was 20 to 50%. LLDEKVQSV gave a peptide exchange yield of 50 to 75%. NLREGDQLL showed a peptide exchange yield of 50 to 75%. Binder GLESEELEPEEL has a peptide exchange yield of 20 to 50%. LILESIPVV showed a peptide exchange yield of 20 to 50%. Binder SLYNLGGSKRISI has a peptide exchange yield of no less than 75%. With YQDLLNVKM the peptide exchange yield was 50 to 75%. Binder VAIGGVDGNVRL has a peptide exchange yield of 20 to 50%. FLPPAQVTV was tested, and the peptide exchange yield was 20 to 50%. With GLASRILDA the peptide exchange yield was 50 to 75%. Binder VLASGFLTV has a peptide exchange yield of no less than 75%. In the case of SMNGGVFAV, the peptide exchange yield is reported as 20 to 50%. With YVVGGFLYQRL the peptide exchange yield was 50 to 75%. ALVEVTEHV showed a peptide exchange yield of 20 to 50%. SIFEGLLSGV showed a peptide exchange yield of 20 to 50%. For KLFGHLTSA, the peptide exchange yield was 20 to 50%. TQTAVITRI was tested, and the peptide exchange yield was 10 to 20%. For TQTTHELTI, the peptide exchange yield was 50 to 75%. IVREFLTAL was tested, and the peptide exchange yield was 50 to 75%. In the case of FLLDQVQLGL, the peptide exchange yield is reported as 50 to 75%. With IAAIRGFLV the peptide exchange yield was 50 to 75%. For KLSDSATYL, the peptide exchange yield was 50 to 75%. With SMHQMLDQTL the peptide exchange yield was 20 to 50%. In the case of VVVTGLTLV, the peptide exchange yield is reported as 20 to 50%. Binder LLANGVYAA has a peptide exchange yield of 10 to 20%. In the case of VVMEELLKV, the peptide exchange yield is reported as 20 to 50%. GLAFSLYQA showed a peptide exchange yield of 20 to 50%. In the case of LLPPPPPPA, the peptide exchange yield is reported as 50 to 75%. In the case of GLLVGSEKVTM, the peptide exchange yield is reported as 50 to 75%. In the case of SLDGTELQL, the peptide exchange yield is reported as 50 to 75%. For SLNGNQVTV, the peptide exchange yield was 10 to 20%. STYGGGLSV was tested, and the peptide exchange yield was 50 to 75%. In the case of YMLDIFHEV, the peptide exchange yield is reported as 20 to 50%. ASDPILYRPVAV gave a peptide exchange yield of 50 to 75%. With SLDGFTIQV the peptide exchange yield was 20 to 50%. VLPKLYVKL was tested, and the peptide exchange yield was 20 to 50%. KLNDTYVNV gave a peptide exchange yield of 50 to 75%. Work on YTQPFSHYGQAL yielded a peptide exchange yield of 50 to 75%. LVRDTQSGSL gave a peptide exchange yield of 20 to 50%. Work on FVLDTSESV yielded a peptide exchange yield of 50 to 75%. With MLTELEKAL the peptide exchange yield was 20 to 50%. In the case of GLDVTSLRPFDL, the peptide exchange yield is reported as 50 to 75%. LLFAGTMTV gave a peptide exchange yield of 20 to 50%. Work on KVVGKDYLL yielded a peptide exchange yield of 10 to 20%. Work on GLAPNTPGKA yielded a peptide exchange yield of 50 to 75%. Binder RLPNAGTQV has a peptide exchange yield of no less than 75%. ALWLPTDSATV was tested, and the peptide exchange yield was 50 to 75%. LAYTLGVKQL gave a peptide exchange yield of 50 to 75%. With GLMKDIVGA the peptide exchange yield was 50 to 75%. For SLVSEQLEPA, the peptide exchange yield was 50 to 75%. LLRFSQDNA was tested, and the peptide exchange yield was 50 to 75%. Binder GLAPFLLNAV has a peptide exchange yield of 50 to 75%. Work on TASAITPSV yielded a peptide exchange yield of 50 to 75%. Binder GLTDVIRDV has a peptide exchange yield of no less than 75%. Binder NLMASQPQL has a peptide exchange yield of 50 to 75%. Binder VLAEGGEGV has a peptide exchange yield of 50 to 75%. Work on YTAQIGADIAL yielded a peptide exchange yield of 50 to 75%. For ATGNDRKEAAENSL, the peptide exchange yield was 50 to 75%. LLSGDLIFL gave a peptide exchange yield of 50 to 75%. SLLDTLREV gave a peptide exchange yield of 50 to 75%. FLLRFSQDNA gave a peptide exchange yield of 20 to 50%. In the case of MLAEKLLQA, the peptide exchange yield is reported as 10 to 20%.
